The values that follow are results of earlier work, collected in paper PMC7431755, “Automated high-content imaging for cellular uptake, from the Schmuck cation to the latest cyclic oligochalcogenides” (Beilstein Journal of Organic Chemistry, 2020).

Like-named read-outs stand apart in the source and are kept apart here.

The test system of this data set is HGM cells. As to the method: The CP50 value of 7.3 ± 0.5 µM obtained for 25 outperformed the CP50 value of 14.9 ± 0.5 μM of the previously reported cell-penetrating streptavidin, in which four asparagusic acids are covalently bound to the protein through irreversible triazole linkages. The CP50 value of 7.3 ± 0.5 µM of 25 was not far above the CP50 value of 3.1 ± 0.5 µM of HIV Tat, the original CPP [55]. As the uptake efficiency generally decreases with the size, this similarity is particularly impressive, considering that the COC carrying a 52 kDa protein is compared to a small undecapeptide.

Regarding “HIV Tat: the original CPP, a small undecapeptide”, the CP50 (CAPA) is listed as 3.1 ± 0.5 µM. Consider “cell-penetrating streptavidin: previously reported streptavidin with four asparagusic acids covalently bound through irreversible triazole linkages”, for which the CP50 is 14.9 ± 0.5 µM.
